Assay results published in the supplement of paper PMC10567573.
± gives the standard deviation.

Assay: protein stability index of a GFP-peptide fusion (GPS, HEK-293T) (PSI 1-6); higher = more stable
[1] = treatment: DMSO, c terminus: a fixed tail appended
[2] = treatment: MLN4924 1 uM, 8 h, c terminus: a fixed tail appended
[3] = treatment: DMSO, c terminus: native
[4] = treatment: MLN4924 1 uM, 8 h, c terminus: native
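Further: 24-mer peptide tiles fused after GFP, lentivirally expressed, FACS-sorted into six equal bins by GFP/DsRed ratio, decoded by Illumina sequencing, PSI is the read-weighted mean bin number.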

| Sequence | protein stability index [1] | protein stability index [2] | protein stability index [3] | protein stability index [4] |
| --- | --- | --- | --- | --- |
| SSTQLNELLLFAVGFIMAGTPMAL [OR3A1] | 3.05 ± 0.3 | 3.04 ± 0.61 |  |  |
| STCHAYSNTRDRYGRSWESYSSCG [RBMY1A1] | 2.29 ± 0.16 | 2.47 ± 0.37 |  |  |
| STDDFFFREDGAYEFNPDFLEEAH [N4BP2L1] | 4.99 ± 0.34 | 4.89 ± 0.17 |  |  |
| STELQASQILQNKKHKNSQLDKNS [FAM98B] | 4.91 ± 0.38 | 5.06 ± 0.45 |  |  |
| STLKTLLFFTALMITVPIGLYFTT [VMA21] | 2.45 ± 0.19 | 2.31 ± 0.19 |  |  |
| STPKLTSRSAAQDLDRMGVMTLPS [PPFIA4] | 4.03 ± 0.28 | 3.97 ± 0.056 |  |  |
| STPTTPGSTAITPGTPPSYSSRTP [MAP2] | 4.88 ± 0.1 | 5.06 ± 0.15 |  |  |
| SVETLDHDSVVEMIRKGGDQTSLL [PDZK1] | 4.44 ± 0.42 | 4.55 ± 0.28 |  |  |
| SVPLDPMERPMSQADLELDYNPPR [CBY2] | 4.75 ± 0.6 | 4.98 ± 0.23 |  |  |
| SVTKEGLELPEDEEEKKKMEESKA [HSP90AB1] | 5.68 ± 0.32 | 5.54 ± 0.39 |  |  |
| SYSRGYSYHDGYGEALGRDHSEHL [RBMY1A1] | 3.5 ± 0.28 | 3.38 ± 0.26 |  |  |
| TAHLYSLLQTQHALGDAFADLSQK [ARFIP2] | 2.18 ± 0.25 | 2.22 ± 0.23 |  |  |
| TASGDCYTFGSNQHGQLGTNTRRG [NEK8] | 4.56 ± 0.14 | 4.67 ± 0.15 |  |  |
| TDIKDESCCMTEEIFGPVTCVVPF [ALDH8A1] | 3.53 ± 0.23 | 3.48 ± 0.3 |  |  |
| TFPDLESEFQAALSRKVAELVHFL [MAGEA3] | 2.34 ± 0.37 | 2.45 ± 0.33 |  |  |
| TFPHSISAKNTSHPGSGTKVQFNL [SASS6] | 2.89 ± 0.33 | 3 ± 0.46 |  |  |
| TGKAPSPRAAHACATVGNRGFVFG [KLHDC2] | 2.38 ± 0.11 | 2.21 ± 0.19 |  |  |
| TGVYPRCLHASQWPVCAACPVRKF [BRF1] | 2.49 ± 0.17 | 2.45 ± 0.24 |  |  |
| THEVMGPKKKHLDYLIQATNETNV [SNAP91] | 3.85 ± 0.32 | 3.69 ± 0.64 |  |  |
| THLLMGLASGRIILILEGGYNLTS [HDAC6] | 2.89 ± 0.46 | 3.02 ± 0.58 |  |  |
| TKLLSGSYDCTVKLWDPVDGSVVR [WDR88] | 3.1 ± 0.33 | 3.19 ± 0.26 |  |  |
| TKRSSRNPVFQDSWDTESSGSDSG [FAM104A] | 5.3 ± 0.28 | 5.22 ± 0.055 |  |  |
| TKWVDYSNKYGFGYQLSDHTVGVL [PLK2] | 2.19 ± 0.33 | 2.08 ± 0.19 |  |  |

| Sequence | protein stability index [1] | protein stability index [2] | protein stability index [3] | protein stability index [4] |
| --- | --- | --- | --- | --- |
| TLALEALVQLRGRLTSQDWERVHL [ALG2] | 2.24 ± 0.27 | 2.32 ± 0.24 |  |  |
| TLGGKAFHITNDEPIPFWTFLSRI [NSDHL] | 2.19 ± 0.096 | 2.28 ± 0.22 |  |  |
| TLHGVVNESTVCLMSYERRQILHL [TENT5D] | 2.35 ± 0.54 | 2.44 ± 0.4 |  |  |
| TLQHWPHIIRIGDLKPTGEIPKQV [DENND6A] | 2.3 ± 0.29 | 2.74 ± 0.24 |  |  |
| TLRPDQQLHIFNTLRSHLIDKGML [CDS2] | 2.14 ± 0.28 | 2.24 ± 0.13 |  |  |
| TLSPHQYHSVHGVGMVPEWSDNS [TBX5] |  |  | 4.01 ± 0.29 | 3.8 ± 0.14 |
| TLVNFHLKRSIPQVSPVRRAPSRR [CPN1] | 2.88 ± 0.28 | 3.13 ± 0.23 |  |  |
| TNEAACLLDNPLCADVLFILQDQE [RHOBTB1] | 3.66 ± 0.24 | 3.82 ± 0.24 |  |  |
| TNNNIKQRLIKKVQEAVLDKWVND [GOLPH3] | 2.37 ± 0.4 | 2.36 ± 0.31 |  |  |
| TNSTPLRAACFDGHLEVVRYLVGE [FEM1A] | 2.32 ± 0.18 | 2.4 ± 0.31 |  |  |
| TNVRLQPAATWNLEEKRLTWRLPD [FCHO1] | 3.27 ± 0.32 | 3.34 ± 0.24 |  |  |
| TPATPEDPAPLWGPPPAQGSPGDG [EMID1] | 5.3 ± 0.48 | 5.31 ± 0.22 |  |  |
| TPFQSVPPTVSQTPVIAATPVPTI [BRD3] | 4.06 ± 0.24 | 3.94 ± 0.13 |  |  |
| TQIIGEQNARLAELERKLREVMES [FBXO28] | 3.71 ± 0.22 | 3.68 ± 0.12 |  |  |
| TREAVTEILGIEPDREKGFHLDVE [TSN] | 4.62 ± 0.063 | 4.64 ± 0.12 |  |  |
| TRFTEEYQLFEELGKGAFSVVRRC [CAMK2A] | 2.63 ± 0.39 | 2.54 ± 0.26 |  |  |
| TSDDNLLKNIELFDKLALRFHGRL [KCTD13] | 2.48 ± 0.2 | 2.46 ± 0.4 |  |  |
| TSECPSDKDKSPESHKAKNESWIK [C10orf62] | 3.58 ± 0.65 | 4.18 ± 0.7 |  |  |
| TSEGTLELQQRNPKAERLRWSPAQ [ZNF232] | 4.27 ± 0.19 | 4.25 ± 0.15 |  |  |
| TSGVAAVQDWYHFHYVDILALLPA [SCNN1D] | 2.42 ± 0.44 | 2.35 ± 0.24 |  |  |
| TSKNSSTQDPSQPNSTKNQSLPKA [LCOR] | 5.31 ± 0.16 | 5.44 ± 0.12 |  |  |
| TSPVYRGSSSGPSSPARVSTTPR [MTUS2] |  |  | 4.45 ± 0.2 | 4.48 ± 0.13 |
| TSSASVTTTSNASGRRTSDVRRP [KRT13] |  |  | 2.88 ± 0.77 | 3.58 ± 0.76 |

| Sequence | protein stability index [1] | protein stability index [2] | protein stability index [3] | protein stability index [4] |
| --- | --- | --- | --- | --- |
| TTTVTAVTAEVDLFGDAFAASPGE [SNAP91] | 4.54 ± 0.13 | 4.59 ± 0.28 |  |  |
| TVASMMHRQETVECLKKFNARRKL [CAMK2B] | 3.41 ± 0.4 | 3.74 ± 0.33 |  |  |
| TVEQGCQILDSLSYMRNENVISEL [FBXO39] | 3.5 ± 0.43 | 3.41 ± 0.42 |  |  |
| TYSKFQPQSPDFLDITNPKAVLEN [UFD1] | 3.92 ± 0.18 | 4.24 ± 0.076 |  |  |
| VAACTKEIDTQGRHLAHSMLQRAI [C10orf62] | 2.86 ± 0.41 | 2.9 ± 0.14 |  |  |
| VADGLCCVLTTPCLTQSTAAPAVR [SLA] | 2.5 ± 0.54 | 2.77 ± 0.2 |  |  |
| VAELFCRRCRRCVCALCPVLGAHR [TRIM14] | 2.25 ± 0.1 | 2.49 ± 0.39 |  |  |
| VAGEFSEPVTLETPAFMFRLDAST [FSD1] | 3.1 ± 0.27 | 3.16 ± 0.19 |  |  |
| VAGVLPDIEQFFNIGDSSSGLIQT [SPNS1] | 3.16 ± 0.25 | 3.32 ± 0.43 |  |  |
| VAIFGPPNTLYEGGYFKAHIKFPI [UBE2R2] | 3.24 ± 1 | 2.95 ± 0.97 |  |  |
| VAQTSLEEFNVLEMEVMRRQLYAV [FATE1] | 2.31 ± 0.37 | 2.21 ± 0.44 |  |  |
| VAVDSNLRVRELQRKVDGIQKAYD [CCDC89] | 3.85 ± 0.21 | 3.94 ± 0.39 |  |  |
| VCALCPVLGAHRGHPVGLALEAAV [TRIM14] | 2.57 ± 0.34 | 2.37 ± 0.6 |  |  |
| VCTDTDRWSLISLSNKNGKNVELK [TENT5C] | 3.46 ± 0.27 | 3.57 ± 0.17 |  |  |
| VEAMYCYLRCIQSEVSFEGAYGNL [SMG5] | 3.13 ± 0.35 | 3.12 ± 0.63 |  |  |
| VEMDIYTALKKWMFLQLVPSWNGS [GMCL1] | 2.65 ± 0.092 | 2.66 ± 0.65 |  |  |
| VEWAKYIPAFCELPLDDQVALLRA [HNF4A] | 2.42 ± 0.64 | 2.44 ± 0.42 |  |  |
| VFGRLRDENGRPYSPSQYALQYAG [NFE2L1] | 2.86 ± 0.45 | 2.65 ± 0.36 |  |  |
| VFLASGAVSVMKKCRKLEDPQSSS [SLC19A2] | 2.81 ± 0.043 | 2.98 ± 0.15 |  |  |
| VFPIKHYQDKIRPYIQLPSHSNIT [TRIB1] | 2.5 ± 0.22 | 2.62 ± 0.22 |  |  |
| VFSTMAGLEEADAEVSVISEADPQ [FBF1] | 5.18 ± 0.36 | 5.26 ± 0.25 |  |  |
| VGEVLKDIETACKLLNITADPMDW [SPDEF] | 2.71 ± 0.17 | 2.51 ± 0.27 |  |  |
| VGKTRLICARACNATLTQYQLLAT [RHOBTB2] | 2.28 ± 0.34 | 2.17 ± 0.31 |  |  |

| Sequence | protein stability index [1] | protein stability index [2] | protein stability index [3] | protein stability index [4] |
| --- | --- | --- | --- | --- |
| VGLVTNQLSHIKAKIRAKIPGTGA [RTN2] | 2.79 ± 0.16 | 2.9 ± 0.11 |  |  |
| VGSGYRMSLVKRRFATGMYLVSC [FCHO1] |  |  | 2.89 ± 0.34 | 3.03 ± 0.4 |
| VHHLPLSTEKVVQETVLVEERRVV [EPB41L3] | 4.3 ± 0.14 | 4.43 ± 0.27 |  |  |
| VHVIGVEEPSVGASMLFDIREST [ZNF8] |  |  | 2.3 ± 0.27 | 2.38 ± 0.17 |
| VIAINYNEKIYELRVMETKPDKAV [UFD1] | 1.89 ± 0.27 | 2.39 ± 0.24 |  |  |
| VIRLKQEQHVHNEKSVLKEVSHPF [PRKX] | 3.36 ± 0.062 | 3.62 ± 0.36 |  |  |
| VIRWIAHDTEIRKVHMKDVMSALW [GAN] | 2.38 ± 0.63 | 2.08 ± 0.2 |  |  |
| VLEYRRTNFEGPPRLKEDQPWMVI [FSD1] | 2.12 ± 0.44 | 2.35 ± 0.39 |  |  |
| VLLMKDRETNKSRGFAFVTFESPA [RBMX] | 2.06 ± 0.47 | 2.2 ± 0.41 |  |  |
| VLRREISELRTKVQEQQKQLQDQD [FBXO28] | 4.73 ± 0.17 | 4.66 ± 0.23 |  |  |
| VLRTWRTNLPKGACALLLTSVDHD [DLC1] | 2.26 ± 0.66 | 2.44 ± 0.39 |  |  |
| VLVILISIVIFCLETLPEFRDEKD [KCNA3] | 2.54 ± 0.81 | 2.25 ± 0.88 |  |  |
| VPAAGGPAPKRGYSSEMKTEDELR [AUH] | 5.53 ± 0.68 | 5.9 ± 0.071 |  |  |
| VPECRLAEDLGNLWENTRFTDCSF [SPOPL] | 2.74 ± 0.34 | 3.21 ± 0.44 |  |  |
| VPWLNLKKQDENEGIKVEDLLFIV [CEP70] | 1.97 ± 0.42 | 2.26 ± 0.22 |  |  |
| VQIKTWFQNRRMKHKRQMQDPQLH [VENTX] | 2.55 ± 0.4 | 2.52 ± 0.34 |  |  |
| VRERDRLGNEYPKLHYPELYVLKG [CDC25A] | 2.62 ± 0.21 | 2.75 ± 0.12 |  |  |
| VSNDSHTWVTVKNGSGDMIFEGNS [CPXM2] | 3.79 ± 0.16 | 4.32 ± 0.3 |  |  |
| VSTQRSQDHFHVFVGDLSPEITTE [TIA1] | 3.98 ± 0.29 | 3.92 ± 0.41 |  |  |
| VVGLHAASKDPREVREARDHKEPK [EHMT1] | 5.06 ± 0.13 | 5.11 ± 0.052 |  |  |
